± gives the standard deviation of the averaged measurements.
Assay: total protein half-life in vivo (active degradation + dilution); higher = more stable protein
[1] = E. coli NCM3722 delta-clpP delta-lon delta-hslV, growth: N-lim chemostat, doubling time 6 h
[2] = E. coli NCM3722 delta-clpP, growth: N-lim chemostat, doubling time 6 h
[3] = E. coli NCM3722 delta-hslV, growth: N-lim chemostat, doubling time 6 h
[4] = E. coli NCM3722 delta-lon, growth: N-lim chemostat, doubling time 6 h
[5] = E. coli NCM3722 delta-smpB, growth: N-lim chemostat, doubling time 6 h
[6] = wild type E. coli NCM3722, growth: C-lim chemostat, doubling time 3 h
[7] = wild type E. coli NCM3722, growth: C-lim chemostat, doubling time 6 h
[8] = wild type E. coli NCM3722, growth: C-lim chemostat, doubling time 12 h
[9] = wild type E. coli NCM3722, growth: N-lim chemostat, doubling time 6 h
[10] = wild type E. coli NCM3722, growth: N-lim chemostat, doubling time 12 h
[11] = wild type E. coli NCM3722, growth: P-lim chemostat, doubling time 6 h
[12] = wild type E. coli NCM3722, growth: P-lim chemostat, doubling time 12 h

| Sequence | total protein half-life in vivo [1] [h] | total protein half-life in vivo [2] [h] | total protein half-life in vivo [3] [h] | total protein half-life in vivo [4] [h] | total protein half-life in vivo [5] [h] | total protein half-life in vivo [6] [h] | total protein half-life in vivo [7] [h] | total protein half-life in vivo [8] [h] | total protein half-life in vivo [9] [h] | total protein half-life in vivo [10] [h] | total protein half-life in vivo [11] [h] | total protein half-life in vivo [12] [h] |
| --- | --- | --- | --- | --- | --- | --- | --- | --- | --- | --- | --- | --- |
| MLDPNLLRNEPDAVAEKLARRGFKLDVDKLGALEERRKVLQVKTENLQAERNSRSKSIGQAKARGEDIEPLRLEVNKLGEELDAAKAELDALQAEIRDIALTIPNLPADEVPVGKDENDNVEVSRWGTPREFDFEVRDHVTLGEMHSGLDFAAAVKLTGSRFVVMKGQIARMHRALSQFMLDLHTEQHGYSENYVPYLVNQDTLYGTGQLPKFAGDLFHTRPLEEEADTSNYALIPTAEVPLTNLVRGEIIDEDDLPIKMTAHTPCFRSEAGSYGRDTRGLIRMHQFDKVEMVQIVRPEDSMAALEEMTGHAEKVLQLLGLPYRKIILCTGDMGFGACKTYDLEVWIPAQNTYREISSCSNVWDFQARRMQARCRSKSDKKTRLVHTLNGSGLAVGRTLVAVMENYQQADGRIEVPEVLRPYMNGLEYIG [P0A8L1] | 5.7 ± 0.32 | 5.43 ± 0.54 | 5.59 ± 0.06 | 5.511 ± 0.051 | 5.16 ± 0.24 | 3.66 ± 0.21 | 6.43 ± 0.77 | 11.5 ± 0.57 | 5.63 ± 0.29 | 9.239 ± 0.058 | 6.28 ± 0.27 | 13.3 ± 1.1 |
| MAQVINTNSLSLITQNNINKNQSALSSSIERLSSGLRINSAKDDAAGQAIANRFTSNIKGLTQAARNANDGISVAQTTEGALSEINNNLQRVRELTVQATTGTNSESDLSSIQDEIKSRLDEIDRVSGQTQFNGVNVLAKNGSMKIQVGANDNQTITIDLKQIDAKTLGLDGFSVKNNDTVTTSAPVTAFGATTTNNIKLTGITLSTEAATDTGGTNPASIEGVYTDNGNDYYAKITGGDNDGKYYAVTVANDGTVTMATGATANATVTDANTTKATTITSGGTPVQIDNTAGSATANLGAVSLVKLQDSKGNDTDTYALKDTNGNLYAADVNETTGAVSVKTITYTDSSGAASSPTAVKLGGDDGKTEVVDIDGKTYDSADLNGGNLQTGLTAGGEALTAVANGKTTDPLKALDDAIASVDKFRSSLGAVQNRLDSAVTNLNNTTTNLSEAQSRIQDADYATEVSNMSKAQIIQQAGNSVLAKANQVPQQVLSLLQG | > 8 |  | > 8 | > 8 | > 8 | 0.717 ± 0.2 | 0.724 ± 0.37 | 0.956 ± 0.59 | 6.3 ± 0.12 |  | > 8 | > 16 |
| MKKWAVIISAVGLAFAVSGCSSDYVMATKDGRMILTDGKPEIDDDTGLVSYHDQQGNAMQINRDDVSQIIER | 4.61 ± 0.25 | 5.4 | 4.24 ± 0.17 | 6.65 ± 0.55 | 3.25 ± 1.1 | 2.24 ± 0.32 | 4.63 ± 0.37 | 7.88 ± 0.34 | 4.76 ± 0.35 | 8.92 ± 2.6 | 3.68 ± 0.91 |  |
| MSALNSLPLPVVRLLAFFHEELSERRPGRVPQTVQLWVGCLLVILISMTFEIPFVALSLAVLFYGIQSNAFYTKFVAILFVVATVLEIGSLFLIYKWSYGEPLIRLIIAGPILMGCMFLMRTHRLGLVFFAVAIVAIYGQTFPAMLDYPEVVVRLTLWCIVVGLYPTLLMTLIGVLWFPSRAISQMHQALNDRLDDAISHLTDSLAPLPETRIEREALALQKLNVFCLADDANWRTQNAWWQSCVATVTYIYSTLNRYDPTSFADSQAIIEFRQKLASEINKLQHAVAEGQCWQSDWRISESEAMAARECNLENICQTLLQLGQMDPNTPPTPAAKPPSMAADAFTNPDYMRYAVKTLLACLICYTFYSGVDWEGIHTCMLTCVIVANPNVGSSYQKMVLRFGGAFCGAILALLFTLLVMPWLDNIVELLFVLAPIFLLGAWIATSSERSSYIGTQMVVTFALATLENVFGPVYDLVEIRDRALGIIIGTVVSAVIYTFVWPESEARTLPQKLAGTLGMLSKVMRIPRQQEVTALRTYLQIRIGLHAAFNACEEMCQRVALERQLDSEERALLIERSQTVIRQGRDLLHAWDATWNSAQALDNALQPDRAGQFADALEKYAAGLATALSRSPQITLEETPASQAILPTLLKQEQHVCQLFARLPDWTAPALTPATEQAQGATQ | 5.28 | > 8 |  |  |  | 0.524 |  |  |  |  |  |  |
| MTDVLLCVGNSMMGDDGAGPLLAEKCAAAPKGNWVVIDGGSAPENDIVAIRELRPTRLLIVDATDMGLNPGEIRIIDPDDIAEMFMMTTHNMPLNYLIDQLKEDIGEVIFLGIQPDIVGFYYPMTQPIKDAVETVYQRLEGWEGNGGFAQLAVEEE [P0AEV9] | 4.89 | 4.16 | 3.67 ± 0.094 | 4.17 | 3.72 ± 0.15 | 3.29 ± 0.42 | 5.01 ± 0.2 | 8.74 | 4.6 | 6.23 |  | 9.42 ± 0.22 |
| MEIFFTILIMTLVVSLSGVVTRVMPFQIPLPLMQIAIGALLAWPTFGLHVEFDPELFLVLFIPPLLFADGWKTPTREFLEHGREIFGLALALVVVTVVGIGFLIYWVVPGIPLIPAFALAAVLSPTDAVALSGIVGEGRIPKKIMGILQGEALMNDASGLVSLKFAVAVAMGTMIFTVGGATVEFMKVAIGGILAGFVVSWLYGRSLRFLSRWGGDEPATQIVLLFLLPFASYLIAEHIGVSGILAAVAAGMTITRSGVMRRAPLAMRLRANSTWAMLEFVFNGMVFLLLGLQLPGILETSLMAAEIDPNVEIWMLFTNIILIYAALMLVRFGWLWTMKKFSNRFLKKKPMEFGSWTTREILIASFAGVRGAITLAGVLSIPLLLPDGNVFPARYELVFLAAGVILFSLFVGVVMLPILLQHIEVADHSQQLKEERIARAATAEVAIVAIQKMEERLAADTEENIDNQLLTEVSSRVIGNLRRRADGRNDVESSVQEENLERRFRLAALRSERAELYHLRATREISNETLQKLLHDLDLLEALLIEENQ | 6.08 ± 0.45 |  | 6.29 ± 0.48 | 5.55 ± 0.11 | 5.17 ± 1.3 |  | 5.6 ± 0.69 | 11.9 ± 0.93 | 5.74 ± 0.28 | 10.9 ± 0.26 | 6.31 ± 0.26 | 11.4 ± 0.66 |

Reference: the supplement of paper PMC11246515
